Consider three molecules from patent US20120316071A1 (published 2012).

The target of experiment [1] is T1, rHuman CD44/Fc Chimera, CF (R&D Systems Cat#3660-CD) (human, UniProt P16070 21-220).
T1 construct: Bought reagent
The experiment in a line: MSD multispot ECL, antigen spotted, Fab 0.1 nM; blank spot 201.

The target in experiment [2] is T2, rHuman Notch-1/Fc Chimera, CF (R&D Systems Cat#3647-TK) (human, UniProt P46531 19-526).
T2 construct: Bought reagent
Described as above.

In experiment [3] the target is T3, rHuman ErbB2/Fc Chimera, CF (R&D Systems Cat#1129-ER) (human, UniProt P04626 23-652).
T3 construct: Bought reagent; also called human epidermal growth factor 2 receptor
The experiment is described as above.

Experiment [4] has as its target T4, rHuman EGF R/Fc Chimera, CF (R&D Systems Cat#344-ER) (human, UniProt P00533 25-645).
T4 construct: Bought reagent; also called epidermal growth factor receptor
Described as above.

In experiment [5] the target is T5, rHuman Erythropoietin R/Fc Chimera, CF (R&D Systems Cat#963-ER) (human, UniProt P19235 25-250).
T5 construct: Bought reagent; also called EPO R/Fc; Epo R
T5 sequence (looked up): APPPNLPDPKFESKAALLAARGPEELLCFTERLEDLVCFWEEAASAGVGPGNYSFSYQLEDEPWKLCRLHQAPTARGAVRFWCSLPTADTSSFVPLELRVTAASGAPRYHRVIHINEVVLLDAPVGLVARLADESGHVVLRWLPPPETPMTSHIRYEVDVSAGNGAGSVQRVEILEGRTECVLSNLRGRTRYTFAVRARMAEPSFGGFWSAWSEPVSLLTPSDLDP
Described as above.

For experiment [6], the target named is T6, rHuman Erythropoietin R/Fc Chimera, CF (R&D Systems Cat#963-ER) (human, UniProt P19235 25-250).
T6 construct: Bought reagent; also called EPO R/Fc; EPO R; Fc part of the bought chimera not given
T6 sequence (looked up): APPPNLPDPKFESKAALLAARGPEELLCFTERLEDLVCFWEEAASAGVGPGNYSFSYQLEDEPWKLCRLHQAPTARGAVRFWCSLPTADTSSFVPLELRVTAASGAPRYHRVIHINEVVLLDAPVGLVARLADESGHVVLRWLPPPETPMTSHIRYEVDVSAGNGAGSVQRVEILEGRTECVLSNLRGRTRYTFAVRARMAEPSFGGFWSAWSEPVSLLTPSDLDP
Description: MSD Multispot ECL, antigen spotted on plate, Fab 32.5 nM; blank spot 473.

Experiment [7] concerns the target T7, rHuman ErbB2/Fc Chimera, CF (R&D Systems Cat#1129-ER) (human, UniProt P04626 23-652).
T7 construct: Bought reagent; also called human epidermal growth factor 2 receptor; Fc part of the bought chimera not given
The description is as above.

Experiment [8] deals with T8, rHuman CD44/Fc Chimera, CF (R&D Systems Cat#3660-CD) (human, UniProt P16070 21-220).
T8 construct: Bought reagent; Fc part of the bought chimera not given
The experiment is described as above.

For experiment [9], the target named is T9, Recombinant Human DLL4 (R&D Systems Cat#1506-D4/CF) (human, UniProt Q9NR61 27-529).
T9 construct: Bought recombinant protein; also called rHuman DLL4; delta-like protein 4
Described as above.

Experiment [10] deals with T10, Recombinant Human DLL4 (R&D Systems Cat#1506-D4/CF) (human, UniProt Q9NR61 27-524).
T10 construct: Bought recombinant protein; also called delta-like protein 4; rHuman DLL4
The experiment in a line: Multispot ECL (MSD) assay, antigen spotted on plate, Fab at 0.312 µM; blank spot 1977.

In experiment [11] the target is T11, rHuman ErbB2/Fc Chimera, CF (R&D Systems Cat#1129-ER) (human, UniProt P04626 23-652).
T11 construct: Bought recombinant protein; also called human epidermal growth factor 2 receptor (ErbB2); Fc part of the bought chimera not given
Described as above.

In experiment [12] the target is T12, rHuman EGF R/Fc Chimera, CF (R&D Systems Cat#344-ER) (human, UniProt P00533 25-645).
T12 construct: Bought recombinant protein; also called epidermal growth factor receptor (EGF R); Fc part of the bought chimera not given
The experiment is described as above.

In experiment [13] the target is T13, rHuman Erythropoietin R/Fc Chimera, CF (R&D Systems Cat#963-ER) (human, UniProt P19235 25-250).
T13 construct: Bought recombinant protein; also called EPO R/Fc; Epo R; Fc part of the bought chimera not given
T13 sequence (looked up): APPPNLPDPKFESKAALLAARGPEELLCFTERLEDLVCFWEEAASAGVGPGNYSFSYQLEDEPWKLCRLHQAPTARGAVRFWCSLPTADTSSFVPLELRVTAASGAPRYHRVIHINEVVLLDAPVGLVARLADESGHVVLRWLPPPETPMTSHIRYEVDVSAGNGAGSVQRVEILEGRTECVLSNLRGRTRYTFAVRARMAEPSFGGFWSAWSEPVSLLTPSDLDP
The experiment is described as above.

Experiment [14] concerns the target T14, rHuman P-Cadherin/Fc Chimera, CF (R&D Systems Cat#861-PC) (human, UniProt P22223 108-654).
T14 construct: Bought recombinant protein; Fc part of the bought chimera not given
The description is as above.

In experiment [15] the target is T15, rHuman IGF-1 sR, (IGF-1 sR), CF (R&D Systems Cat#391-GR) (human, UniProt P08069 31-932).
T15 construct: Bought recombinant soluble receptor; also called insulin-like growth factor-1 soluble receptor
Described as above.

For experiment [16], the target named is T16, rHuman Notch-1/Fc Chimera, CF (R&D Systems Cat#3647-TK) (human, UniProt P46531 19-526).
T16 construct: Bought recombinant protein; Fc part of the bought chimera not given
The experiment is described as above.

Experiment [17] has as its target T17, rHuman CD44/Fc Chimera, CF (R&D Systems Cat#3660-CD) (human, UniProt P16070 21-220).
T17 construct: Bought recombinant protein; Fc part of the bought chimera not given
The description is as above.

Experiment [18] concerns the target T18, rHuman HGF R/c-MET/Fc Chimera, CF (R&D Systems Cat#358-MT/CF) (human, UniProt P08581 25-932).
T18 construct: Bought recombinant protein; also called HGF R/Fc; hepatocyte growth factor receptor (HGF R/c-Met); Fc part of the bought chimera not given
The experiment is described as above.

T18 sequence (P08581 25-932, change not shown): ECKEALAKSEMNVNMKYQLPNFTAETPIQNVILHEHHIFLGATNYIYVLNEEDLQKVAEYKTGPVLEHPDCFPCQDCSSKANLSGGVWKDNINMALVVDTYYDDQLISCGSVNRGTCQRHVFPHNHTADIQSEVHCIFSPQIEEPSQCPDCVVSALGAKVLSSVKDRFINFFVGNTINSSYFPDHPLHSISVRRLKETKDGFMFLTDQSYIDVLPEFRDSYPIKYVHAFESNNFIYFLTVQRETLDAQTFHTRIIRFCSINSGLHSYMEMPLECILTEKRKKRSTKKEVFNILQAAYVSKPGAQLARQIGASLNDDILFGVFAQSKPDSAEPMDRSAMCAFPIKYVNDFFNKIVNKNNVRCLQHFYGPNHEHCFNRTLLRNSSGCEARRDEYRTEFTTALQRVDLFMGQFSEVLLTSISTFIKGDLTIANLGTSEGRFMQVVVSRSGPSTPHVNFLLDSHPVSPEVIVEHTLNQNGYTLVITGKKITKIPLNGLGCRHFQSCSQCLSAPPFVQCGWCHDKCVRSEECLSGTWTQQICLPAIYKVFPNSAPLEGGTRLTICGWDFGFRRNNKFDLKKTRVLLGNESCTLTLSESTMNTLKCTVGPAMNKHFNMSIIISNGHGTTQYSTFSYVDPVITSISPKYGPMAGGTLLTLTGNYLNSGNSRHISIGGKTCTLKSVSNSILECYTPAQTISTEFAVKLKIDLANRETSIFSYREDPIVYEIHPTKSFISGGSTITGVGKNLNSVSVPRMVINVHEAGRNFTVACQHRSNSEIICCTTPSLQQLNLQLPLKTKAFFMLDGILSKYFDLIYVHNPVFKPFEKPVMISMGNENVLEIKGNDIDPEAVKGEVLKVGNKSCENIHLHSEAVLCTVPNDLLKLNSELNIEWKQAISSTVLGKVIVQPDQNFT

B1: Fab VH1-46_IGHD6-6*01_IGHJ1*01 & L6_IGKJ1*01 (Fab, V domains shown)
VH: QVQLVQSGAEVKKPGASVKVSCKASGYTFTSYYMHWVRQAPGQGLEWMGIINPSGGSTSYAQKFQGRVTMTRDTSTSTVYMELSSLRSEDTAVYYCAREEYSSSSAEYFQHWGQGTLVTVSS
VL: not shown
notes: Only variable domains are tied to the molecule; Tested as a Fab made in E. coli: heavy chain from Plasmid A (CH1 constant region, His6 and Flag tags), kappa light chain from Plasmid C (kappa CL); also called parent Hit Fab against DLL4; VH1-46_IGHD6-6*01_IGHJ1*01 & L6_IGKJ1*01 (parental)
B1: the ECL signal in [1] turned out to be 323 ECL signal; in experiment [2] it was 378 ECL signal; in [3], 306 ECL signal; in [4] it was 311 ECL signal; in [5] it was 373 ECL signal.

B2: Fab VH1-8_IGHD2-2*01_IGHJ6*01 & L12_IGKJ1*01 (Fab, V domains shown)
VH: QVQLVQSGAEVKKPGASVKVSCKASGYTFTSYDINWVRQATGQGLEWMGWMNPNSGNTGYAQKFQGRVTMTRNTSISTAYMELSSLRSEDTAVYYCARGGYCSSTSCYADYYYYYGMDVWGQGTTVTVSS
VL: not shown
For the molecule B2, the ECL signal in experiment [6] was 673; in [7], 556; in [8] it was 573; in [9], 2990.

B3: Fab VH1-46_IGHD7-27*01_IGHJ2*01 & L6_IGKJ1*01 (Fab, V domains shown)
VH: QVQLVQSGAEVKKPGASVKVSCKASGYTFTSYYMHWVRQAPGQGLEWMGIINPSGGSTSYAQKFQGRVTMTRDTSTSTVYMELSSLRSEDTAVYYCARANWGYWYFDLWGRGTLVTVSS
VL: not shown
notes: Germline Fab made in E. coli; VH was cloned in Plasmid A (CH1 constant region, His6 and Flag tags) and the kappa VL in Plasmid C (kappa CL); Only the variable domains are tied to this Fab by name
For B3, the ECL signal in experiment [10] was 5480; in experiment [11], 3660; in experiment [12] it was 4330; in experiment [13], 5020; in experiment [14], 7100; in [15], 3510. Besides, the ECL signal is 4460 in [16], 4170 in experiment [17] and 4690 in experiment [18].
